How the values were obtained:
[1] = tested on: border cells; assay: Border cell migration in stage 10 egg chambers expressing Catsup RNAi (rescue by co-expressed transgenes); type: in vivo, Drosophila; conditions: co-expressed with Catsup RNAi in border cells
Text: Border cell clusters are composed of 4-6 migratory cells that surround and carry two non-migratory polar cells. Expression of a Catsup RNAi line in outer, migratory border cells using fruitlessGal4^51 inhibited migration (FIG. 2A). The defect was rescued by co-expression of UAS-CatsupV5 (FIG. 2B). Reduction of Catsup::GFP confirmed the effectiveness of the RNAi (FIGS. 2C, C′ and 2D, D′). Border cell migration was also impaired when Catsup RNAi was driven by c306Gal4 (FIG. 2E), which is expressed in both polar and migratory cells.
ZIP7 resides in the ER membrane and transports Zn^2+ from the ER to the cytosol^64. To test whether the Zn^2+ transporter activity of Catsup was important for border cell migration, we introduced point mutations, H315A and H344A, which replace histidine residues that are required for Zn^2+ transport and are conserved between Catsup, ZIP7 and a more distant family member from Arabidopsis IRT1. […] We generated transgenic flies expressing the mutants under Gal4/UAS control and included a V5 tag so that we could monitor protein abundance and localization. We then co-expressed each of these RNAi-resistant transgenes with CatsupRNAi and evaluated protein expression and border cell migration (FIGS. 5B-5E). […] All the proteins were stably expressed and correctly localized to the ER (FIGS. 5B-5E), therefore the lack of rescue was likely a consequence of impaired transporter activity rather than impaired expression, localization, or another function. […] From these experiments, we conclude that Zn^2+ transport is an essential function of Catsup in promoting ERAD.
Catsup mutant fly was generated by ethyl methanesulfonate (EMS) mutagen^37. The mutation results in glycine(G) to aspartic acid(D) replacement at amino acid 178. The FLP/FRT system was used to generate the Catsup^G178D homozygous mutant clones by combining FRT40A-Catsup^G178D with hsFLP12,yw;ubi:GFPnls, FRT40A or hsFLP12,yw;ubi:RFPnls, FRT40A/(CyO). Catsup::GFP expression pattern visualized by the line from VDRC 318542 in the fTRG stocks library. The UAS-CatsupRNAi transgenic line is from VDRC 100095 P{KK103630}VIE-260B. Wild type rescue w[*]; sna[Sco]/CyO; P{w[+mCJ=UAS-Catsup. V5}6 Bloomington 63229. Additional transgenic Drosophila stocks used: UAS-wRNAi/Cyo is a lab stock, UAS-PleRNAi Bloomington 25796 y[1] v[1]; P{y[+t7.7] v[+t1.8]=TRiP.JF01813}attP2, UAS-Ple is Bloomington 37539 w[*]; P{w[+mC]=UAS-ple.T}331f2, O-fucosyltransferasel Bloomington 9376 P{UAS-O-fut.}]1.1, UAS-Notch.Intracellular.Domain on third chromosome was a gift from Artavanis-Tsakonas lab^71. The ER stress marker UAS-Xbp1-EGFP.HG Bloomington 60731 w[*]; P{w[+mC]=UAS-Xbp1.EGFP.HG}3, UAS-HSC70-3 Bloomington 5843 w[126]; P{w[+mC]=UAS-Hsc70-3. WT}B. Catsup point mutations were cloned into vector pUASt-attb with forward primer ctctgaatagggaattggg[…] (SEQ ID NO:1) and reverse primer ccgcagatctgttaacgtca[…] (SEQ ID NO:2). The vector was injected to attp2 flies y1 w67c23; P{CaryP}attP2 by BestGene Inc.
When generating UAS-Catsup-point-mutations, we designed the construct so it cannot be targeted by the CatsupRNAi sequences by substituting redundant codons for the same amino acids within the region targeted by the RNAi. The RNAi resistant sequence is below with nucleic acid substitutions in lower case:
Point mutations were designed by changing codons at the following site CatsupH183A (CAC to GCC), CatsupH187A (CAT to GCT), CatsupH315A (CAT to GCT), CatsupH344A ([…]). […]

[2] = tested on: Notch and EGFR; assay: Intracellular accumulation of Notch and EGFR in mosaic clones expressing CatsupRNAi; type: in vivo, Drosophila; conditions: mosaic expression with CatsupRNAi
Text: In wing imaginal disc epithelia, multiple transmembrane receptor proteins, including Notch and EGFR, accumulate abnormally in Catsup mutant cells^40. We similarly found abnormal intracellular accumulation of Notch in follicle cells generally (FIG. 3D, D′) and border cells specifically (FIG. 3E, E′) upon Catsup knockdown. […] As in imaginal discs, EGFR also accumulated abnormally in Catsup RNAi-expressing border cells (FIG. 3G, G′) and epithelial follicle cells (FIG. 3H, H′), whereas E-Cadherin was unaffected (FIG. 31, I′). From these observations, we conclude that Catsup prevents intracellular accumulation of particular transmembrane proteins and promotes Notch signaling, migration and survival in multiple cell types and organisms.
ZIP7 resides in the ER membrane and transports Zn^2+ from the ER to the cytosol^64. To test whether the Zn^2+ transporter activity of Catsup was important for border cell migration, we introduced point mutations, H315A and H344A, which replace histidine residues that are required for Zn^2+ transport and are conserved between Catsup, ZIP7 and a more distant family member from Arabidopsis IRT1. […] We then co-expressed each of these RNAi-resistant transgenes with CatsupRNAi and evaluated protein expression and border cell migration (FIGS. 5B-5E). […]

B1: O-fucosyltransferase-1: Notch specific chaperone, overexpressed from a UAS transgene (protein, UniProt Q9V6X7 24-402, looked up)
GDP-fucose protein …: QLGGDPNGYLTYCPCMGRFGNQADHFLGSLAFAKALNRTLILPPWVEYRRGELRSRQVPFNTYFEVEPLKEYHRVITMADFMWHLADDIWPESERVSFCYKERYSLQQEKNDPDKPNCHAKDGNPFGPFWDTFHIDFVRSEFYAPLHFDVHHSNEAAKWQTKYPAESYPVLAFTGAPASFPVQLENCKLQRYLQWSQRYREASKDFIREQLPRGAFLGIHLRNGIDWVRACEHVKDSQHLFASPQCLGYKNERGALYPELCMPSKEAIIRQLKRTIKNVRQTQPDNEIKSVFVASDSNHMIGELNTALSRMGISVHKLPEDDPYLDLAILGQSNHFIGNCISSYSAFEKRERDVHGFPSYFWGFPKEKDRKHTNVHEEL
Question: Which “rescue of border cell migration defect” value [1] does the source give for B1 here?
Answer: Its value is “neither NICD expression nor overexpression of the Notch specific chaperone O-fucosyltransferase-1^58 was sufficient to rescue Catsup RNAi”.

B2: Catsup^H187A: V5-tagged RNAi-resistant Catsup point mutant that does not disrupt Zn2+ transport (control) (protein, UniProt Q9V3A4 1-449, looked up, variant H187A)
Protein catecholamines up: MAKQVADYQCSKLQLYQKLALVVILGAVLFSLPALCAGQGNPSFKYSREANENFDPQKAPRAEHHHHHDHDHDHGHHHHGHDHDHDHDHGHDHGHHHHGHDHDHDHDHGHHHHGHDERHTKAKPDLDMSTIWLHSIGSTLLISAAPFVLLYIIPLDNSEAMKPRLKVLLAFASGGLLGDAFLHLIPAATHPHSHGEHGHDHGHDHHHHHDGEEHEHGHSHDMSIGLWVLGGIIAFLSVEKLVRILKGGHGGHGHSHGAPKPKPVPAKKKSSDKEDSGDGDKPAKPAKIKSKKPEAEPEGEVEISGYLNLAADFAHNFTDGLAIGASYLAGNSIGIVTTITILLHEVPHEIGDFAILIKSGCSRRKAMLLQLVTALGALAGTALALLGAGGGDGSAPWVLPFTAGGFIYIATVSVLPELLEESTKLKQSLKEIFALLTGVALMIVIAKFE
modifications: V5 tag
Question: B2 was tested. Which “rescue of accumulation of Notch and EGFR” value [2] did it give?
Answer: The value was “did”.

Question: What about the “rescue of border cell migration defect” value [1] of the same molecule?
Answer: The value was “rescue border cell migration to nearly wild type levels”.

B3: Catsup^H183A: V5-tagged RNAi-resistant Catsup point mutant that does not disrupt Zn2+ transport (control) (protein, UniProt Q9V3A4 1-449, looked up, variant H183A)
Protein catecholamines up: MAKQVADYQCSKLQLYQKLALVVILGAVLFSLPALCAGQGNPSFKYSREANENFDPQKAPRAEHHHHHDHDHDHGHHHHGHDHDHDHDHGHDHGHHHHGHDHDHDHDHGHHHHGHDERHTKAKPDLDMSTIWLHSIGSTLLISAAPFVLLYIIPLDNSEAMKPRLKVLLAFASGGLLGDAFLALIPHATHPHSHGEHGHDHGHDHHHHHDGEEHEHGHSHDMSIGLWVLGGIIAFLSVEKLVRILKGGHGGHGHSHGAPKPKPVPAKKKSSDKEDSGDGDKPAKPAKIKSKKPEAEPEGEVEISGYLNLAADFAHNFTDGLAIGASYLAGNSIGIVTTITILLHEVPHEIGDFAILIKSGCSRRKAMLLQLVTALGALAGTALALLGAGGGDGSAPWVLPFTAGGFIYIATVSVLPELLEESTKLKQSLKEIFALLTGVALMIVIAKFE
modifications: V5 tag
Question: With B3 as the molecule, how does the “rescue of accumulation of Notch and EGFR” value [2] read?
Answer: Its value is “did”.

Question: And the “rescue of border cell migration defect” value [1]?
Answer: The value was “rescue border cell migration to nearly wild type levels”.

B4: Catsup^H315A: V5-tagged RNAi-resistant Catsup point mutant replacing a histidine required for Zn2+ transport (protein, UniProt Q9V3A4 1-449, looked up, variant H315A)
Protein catecholamines up: MAKQVADYQCSKLQLYQKLALVVILGAVLFSLPALCAGQGNPSFKYSREANENFDPQKAPRAEHHHHHDHDHDHGHHHHGHDHDHDHDHGHDHGHHHHGHDHDHDHDHGHHHHGHDERHTKAKPDLDMSTIWLHSIGSTLLISAAPFVLLYIIPLDNSEAMKPRLKVLLAFASGGLLGDAFLHLIPHATHPHSHGEHGHDHGHDHHHHHDGEEHEHGHSHDMSIGLWVLGGIIAFLSVEKLVRILKGGHGGHGHSHGAPKPKPVPAKKKSSDKEDSGDGDKPAKPAKIKSKKPEAEPEGEVEISGYLNLAADFAANFTDGLAIGASYLAGNSIGIVTTITILLHEVPHEIGDFAILIKSGCSRRKAMLLQLVTALGALAGTALALLGAGGGDGSAPWVLPFTAGGFIYIATVSVLPELLEESTKLKQSLKEIFALLTGVALMIVIAKFE
Question: With B4 as the molecule, how does the “rescue of border cell migration defect” value [1] read?
Answer: Its value is “neither Castup^H344A nor Catsup^H315A provided significant rescue”.

From patent US20250000945A1, “Suppression of Neurodegeneration with Zinc Transporter Protein 7” (The Regents of the University of California, priority 2021, published 2025)
